Biological target: MPP8 (M-phase phosphoprotein 8) (UniProt Q99549)
Test: cross-linking; photo-crosslinking under UV-B irradiation of recombinant reader (3 or 10 uM CBX1, 5 uM BPTF, 3 uM MPP8) with sulfonium peptide (100 uM or various concentrations), 3 to 20 min; conjugates quantified by HR-MS

Chain of MPP8 (M-phase phosphoprotein 8) (Q99549 whole entry): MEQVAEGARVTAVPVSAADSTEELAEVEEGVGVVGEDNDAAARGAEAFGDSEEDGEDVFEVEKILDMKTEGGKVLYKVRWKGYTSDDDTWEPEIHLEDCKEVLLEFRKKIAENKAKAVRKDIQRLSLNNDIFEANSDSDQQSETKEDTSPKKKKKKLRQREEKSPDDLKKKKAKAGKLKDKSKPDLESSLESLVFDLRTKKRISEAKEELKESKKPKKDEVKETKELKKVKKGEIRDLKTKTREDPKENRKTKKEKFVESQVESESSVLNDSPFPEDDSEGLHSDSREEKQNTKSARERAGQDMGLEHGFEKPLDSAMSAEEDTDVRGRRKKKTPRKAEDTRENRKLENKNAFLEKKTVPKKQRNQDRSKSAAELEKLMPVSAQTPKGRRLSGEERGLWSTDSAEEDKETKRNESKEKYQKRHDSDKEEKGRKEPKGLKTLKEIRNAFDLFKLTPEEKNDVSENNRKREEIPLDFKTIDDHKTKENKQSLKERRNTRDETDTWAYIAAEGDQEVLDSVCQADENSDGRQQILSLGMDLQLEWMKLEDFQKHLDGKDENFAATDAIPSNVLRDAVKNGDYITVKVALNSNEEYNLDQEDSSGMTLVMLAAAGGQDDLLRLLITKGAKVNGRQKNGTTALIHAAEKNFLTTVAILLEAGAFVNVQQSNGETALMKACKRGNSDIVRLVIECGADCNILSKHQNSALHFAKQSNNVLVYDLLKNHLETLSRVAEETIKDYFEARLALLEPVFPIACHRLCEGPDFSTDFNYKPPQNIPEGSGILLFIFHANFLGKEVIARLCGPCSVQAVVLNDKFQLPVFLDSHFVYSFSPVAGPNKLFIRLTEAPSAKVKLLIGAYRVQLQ

Question: “H3K9NleCTMS peptide (histone H3 peptide, cysteine at position 9 alkylated to cyclic tetramethylene sulfonium)” was tested. Which fold increase of the peptidyl conjugate yield against H3K9NleS+me2 did it give?
Answer: The fold increase of the peptidyl conjugate yield against H3K9NleS+me2 was > 3 fold.
